Reference: publication PMC10305218, “Expression of β-Glucosidases from the Yak Rumen in Lactic Acid Bacteria: A Genetic Engineering Approach” (Microorganisms, 2023)

Columns and labels:
[1] = substrate: OCc1ccccc1O[C@@H]1O[C@H](CO)[C@@H](O)[C@H](O)[C@H]1O; assay: DNS reducing sugar assay, Michaelis-Menten / Lineweaver-Burk fit; assay type: biochemical, Paenibacillus polymyxa; conditions: 50 °C, pH 7.0, bacterial supernatant
Source text: DNS reducing sugar assay, Michaelis-Menten / Lineweaver-Burk fit on BglA

[2] = substrate: OCc1ccccc1O[C@@H]1O[C@H](CO)[C@@H](O)[C@H](O)[C@H]1O; assay: as above; assay type: biochemical, Paenibacillus polymyxa; conditions: 50 °C, pH 7.0, bacterial supernatant; remark: listed apart in the source
Source text: DNS reducing sugar assay, Michaelis-Menten / Lineweaver-Burk fit on BglB

| Protein | Km [1] [µM] | Vmax [1] [µmol/min/mg] | kcat [1] [s⁻¹] | kcat/Km [1] [M⁻¹ s⁻¹] | Km [2] [µM] | Vmax [2] [µmol/min/mg] | kcat [2] [s⁻¹] | kcat/Km [2] [M⁻¹ s⁻¹] |
| --- | --- | --- | --- | --- | --- | --- | --- | --- |
| BglA (Paenibacillus polymyxa) (protein, amplified from yak rumen metagenomic DNA; usp45 signal peptide, pMG36e, secreted by L. lactis NZ9000; about 55 kDa; gene 1361 bp; supernatant / TCA-acetone precipitate) MTIFQFPQDFMWGTATAAYQIEGAYQEDGRGLSIWDTFAHTPGKVFNGDNGNVACDSYHRYEEDIRLMKELGIRTYRFSVSWPRIFPNGDGEVNQEGLDYYHRVVDLLNDNGIEPFCTLYHWDLPQALQDAGGWGNRRTIQAFVQFAETMFREFHGKIQHWLTFNEPWCIAFLSNMLGVHAPGLTNLQTAIDVGHHLLVAHGLSVRRFRELGTSGQIGIAPNVSWAVPYSTSEEDKAACARTISLHSDWFLQPIYQGSYPQFLVDWFAEQGATVPIQDGDMDIIGEPIDMIGINYYSMSVNRFNPEAGFLQSEEINMGLPVTDIGWPVESRGLYEVLHYLQKYGNIDIYITENGACINDEVVNGKVQDDRRISYMQQHLVQVHRTIHDGLHVKGYMAWSLLDNFEWAEGYNMRFGMIHVDFRTQVRTPKESYYWYRNVVSNNWLETRR | 38.61 | 1340 | 435 | 1.13e+07 | – | – | – | – |
| BglB (Paenibacillus polymyxa) (protein, amplified from yak rumen metagenomic DNA; usp45 signal peptide, pMG36e, secreted by L. lactis NZ9000; about 55 kDa; gene 1361 bp; supernatant / TCA-acetone precipitate) NTFIFPATFMWGTSTSSYQIEGGTDEGGRTPSIWDTFCQIPGKVIGGDCGDVACDHFHHFKEDVQLMKQLGFLHYRFSVAWPRIMPAAGIINEEGLLFYEHLLDEIELAGLIPMLTLYHWDLPQWIEDEGGWTQRETIQHFKTYASVIMDRFGERINWWNTINEPYCASILGYGTGEHAPGHENWREAFTAAHHILMCHGIASNLHKEKGLTGKIGITLNMEHVDAASERPEDVAAAIRRDGFINRWFAEPLFNGKYPEDMVEWYGTYLNGLDFVQPGDMELIQQPGDFLGINYYTRSIIRSTNDASLLQVEQVHMEEPVTDMGWEIHPESFYKLLTRIEKDFSKGLPILITENGAAMRDELVNGQIEDTGRHGYIEEHLKACHRFIEEGGQLKGYFVWSFLDNFEWAWGYSKRFGIVHINYETQERTPKQSALWFKQMMAKNGF | – | – | – | – | 43.99 | 1250 | 349 | 7.93e+06 |
